Source: patent US20110038869A1 (Genmab, published 2011)

Key:
biotinylated CD32bECDHis [1] = target: T1, biotinylated CD32bECDHis (human, UniProt P31994 43-223, limits assumed, biotinylated (sites not given)); assay: competition ELISA, competitor 026
T1 sequence (looked up): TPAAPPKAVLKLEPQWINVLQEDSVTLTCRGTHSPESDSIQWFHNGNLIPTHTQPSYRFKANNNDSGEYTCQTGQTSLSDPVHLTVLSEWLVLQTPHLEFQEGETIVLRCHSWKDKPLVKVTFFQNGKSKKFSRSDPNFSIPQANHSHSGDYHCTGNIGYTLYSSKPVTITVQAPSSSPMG
Experimental: (§1) ELISA wells were coated overnight at 4° C. with anti-CD32b HuMabs serially diluted in PBS. The ELISA wells were washed with PBS, blocked for one hour at room temperature with 2% (v/v) chicken serum (Gibco, Paisley, Scotland) in PBS and washed again with PBS. Subsequently, the immobilized antibodies were incubated with biotinylated CD32bECDHis serially diluted in PBSTC. After washing with PBS/Tween, bound biotinylated CD32bECDHis was incubated with Streptavidin-poly-HRP (Sanquin, Amsterdam, The Netherlands) for 1 hr at RT an the reaction was developed as described supra.
(§2) To this end, ELISA wells coated with anti-CD32b HuMabs were incubated in the presence of an excess of CD32b-specific antibody and the predetermined concentration of biotinylated CD32bECDHis in fluid phase. The reaction was developed as described.

biotinylated CD32bECDHis [2] = target: T1, biotinylated CD32bECDHis; assay: competition ELISA, competitor 2B6
Experimental: as §1, §2

biotinylated CD32bECDHis [3] = target: T1, biotinylated CD32bECDHis; assay: competition ELISA, competitor 024
Experimental: as §1, §2

biotinylated CD32bECDHis [4] = target: T1, biotinylated CD32bECDHis; assay: competition ELISA, competitor 063
Experimental: as §1, §2

biotinylated CD32bECDHis [5] = target: T1, biotinylated CD32bECDHis; assay: competition ELISA, competitor 034
Experimental: as §1, §2

biotinylated CD32bECDHis [6] = target: T1, biotinylated CD32bECDHis; assay: competition ELISA, competitor 038
Experimental: as §1, §2

biotinylated CD32bECDHis [7] = target: T1, biotinylated CD32bECDHis; assay: competition ELISA, competitor 053
Experimental: as §1, §2

biotinylated CD32bECDHis [8] = target: T1, biotinylated CD32bECDHis; assay: competition ELISA, competitor 020
Experimental: as §1, §2

biotinylated CD32bECDHis [9] = target: T1, biotinylated CD32bECDHis; assay: competition ELISA, competitor 016
Experimental: as §1, §2

biotinylated CD32bECDHis [10] = target: T1, biotinylated CD32bECDHis; assay: competition ELISA, competitor 022
Experimental: as §1, §2

biotinylated CD32bECDHis [11] = target: T1, biotinylated CD32bECDHis; assay: competition ELISA, competitor 028
Experimental: as §1, §2

[12] = target: T2, full length CD32b2 on transfected IIA1.6 cells (human, UniProt P31994-2 43-291); assay: flow cytometry on IIA1.6-CD32b2 cells
T2 construct: whole, on cells; also called IIA1.6-CD32b2
T2 sequence (looked up): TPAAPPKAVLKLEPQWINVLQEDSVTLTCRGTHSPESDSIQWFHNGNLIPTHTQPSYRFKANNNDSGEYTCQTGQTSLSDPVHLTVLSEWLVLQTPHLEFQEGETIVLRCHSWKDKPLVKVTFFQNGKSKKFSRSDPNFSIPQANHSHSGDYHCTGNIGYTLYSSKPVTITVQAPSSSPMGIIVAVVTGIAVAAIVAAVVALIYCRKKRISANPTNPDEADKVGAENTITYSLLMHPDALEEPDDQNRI
Experimental: (§3) After harvesting and counting, IIA1.6 cells stably transfected with full length CD32a and CD32b (van den Herik-Oudijk et al., 1994), control IIA1.6 cells and Daudi-luc cells were resuspended in PBS (1×10⁶ cells/ml). Cells were put in 96-well V-bottom plates (100 μl/well) and washed twice with FACS buffer (PBS supplemented with 0.1% BSA and 0.02% Na-azide). Thereafter, 50 μl of serially diluted HuMab in FACS buffer was added to the cells and incubated for 30 minutes at 4° C. After washing three times with FACS buffer, 50 μl of phycoerythrin (PE)-conjugated rabbit anti-human IgG (Jackson ImmunoResearch Europe), diluted 1:200 in FACS buffer, was added. After 30 minutes at 4° C. (in the dark), cells were washed three times, and specific binding of the HuMabs was detected by flow cytometry on a FACSCalibur (BD Biosciences). […] Binding curves were analyzed using non-linear regression (sigmoidal dose-response with variable slope) using GraphPad Prism V4.03 software (GraphPad Software, San Diego, Calif., USA).
To analyze binding of anti-CD32b HuMabs to CD32b1 and CD32b2, IIA1.6 cells transfected with full length CD32b1 or CD32b2 (van den Herik-Oudijk et al., 1994) were prepared as described supra. The assay was performed as described supra. Flow cytometry was performed on a FACS Canto II (BD Biosciences).

CD32bECDHis [13] = target: T3, CD32bECDHis (human, UniProt P31994 43-223, limits assumed); assay: ELISA on coated CD32bECDHis
T3 construct: Produced in HEK-293F cells; also called extracellular domain of CD32b with C-terminal His tag; soluble CD32b
T3 sequence (looked up): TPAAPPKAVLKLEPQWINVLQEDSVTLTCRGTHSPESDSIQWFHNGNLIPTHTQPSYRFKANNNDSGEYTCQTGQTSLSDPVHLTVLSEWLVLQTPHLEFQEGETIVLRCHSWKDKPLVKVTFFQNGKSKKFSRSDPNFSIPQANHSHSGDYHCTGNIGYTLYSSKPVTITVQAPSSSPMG
Experimental: The specificity of the obtained anti-CD32b HuMabs was evaluated by ELISA. ELISA plates (Microlon; Greiner Bio-One) were coated overnight at 4° C. with 2 μg/ml of CD32aECDHis and CD32bECDHis in PBS, pH 7.4. Coated ELISA plates were washed with PBS, blocked for one hour at room temperature with 2% (v/v) chicken serum (Gibco, Paisley, Scotland) in PBS and washed again with PBS. Subsequently, HuMabs, serially diluted in PBSTC (PBS supplemented with 2% (v/v) chicken serum and 0.05% (v/v) Tween-20), were incubated for 1 hr at RT under shaking conditions (300 rpm). Bound HuMabs were detected using HRP-conjugated goat-anti-human IgG antibodies (Jackson ImmunoResearch Europe) diluted 1:10,000 in PBSTC, which were incubated for 1 hr at RT under shaking conditions (300 rpm). […] Binding curves were analyzed using non-linear regression (sigmoidal dose-response with variable slope) using GraphPad Prism V4.03 software.

CD32bECDHis [14] = target: T3, CD32bECDHis; assay: TR-FRET competition against HuMab-KLH-AlexaFluor 647
From the text: To study the interaction of anti-CD32b HuMabs with CD32b and CD32a in more detail TR-FRET technology was applied. To this end, CD32bECDHis and CD32aECDHis were labeled with a fluorescent donor molecule directed against the histidine tag (Anti-6×His Europium3+, PerkinElmer, Boston Mass.).
Briefly, all dilutions were made in 0.5× Lance detection buffer (PerkinElmer, Boston Mass.) supplemented with 0.2% BSA (obtained via dilution of 7.5% BSA Stabilizer solution, cat: CR84-100, PerkinElmer) and 0.03% (v/v) Tween-20 (Riedel de Haen, Seelze, Germany). CD32bECDHis and CD32aECDHis were diluted to 0.5 μg/ml. […] Anti-6×His Europium3+ (PerkinElmer, Boston Mass.) was diluted to 0.15 μg/ml. A 4-fold serial dilution of the tested HuMab antibody was made in a 96 wells non-binding plate (cat. 650261, Greiner Bio-one, Frickenhausen, Germany), ranging from 10 μg/ml-0.04 ng/ml. […] After overnight incubation at 4° C. in the dark, fluorescence was measured using an EnVision 2101 Multilabel reader (PerkinElmer, Boston, Mass.) applying the following settings; Lance/Delfia dual mirror, emission filter 615-665 nm, excitation filter 320 nm, delay time 60 μs, window 100 μs, 100 flashes, 2000 μs per cycle and bidirectional row-by-row reading. Binding curves were analyzed using non-linear regression (sigmoidal dose-response with variable slope) using GraphPad Prism V4.03 software (GraphPad Software, San Diego, Calif., USA).

CD32bECDHis [15] = target: T3, CD32bECDHis; assay: SPR BIAcore 3000, antibody immobilized, CD32bECDHis analyte
Experimental: Antibody binding to CD32a and CD32b was analyzed by surface plasmon resonance in a BIAcore 3000 (GE Healthcare). CD32aECDHis and CD32bECDHis derived from HEK293 cells were used for the analysis. HuMab antibodies were immobilized on the CM-5 sensor chip according to the procedure recommended by the manufacturer. Briefly, after surface activation by EDC and NHS HuMab antibody was injected over the activated CM-5 surface in 10 mM sodium-acetate, pH ranging from 4.0 to 5.5 at 5 μl/min. followed by 1 M Ethanolamine for deactivation. Concentration series of CD32bECDHis in HBS-EP buffer were injected over the immobilized antibodies at a flow rate of 30 μl/min for 180 sec. Regeneration of the HuMab surface was performed by injection of 10 mM Glycine-HCl pH 2.0 or 10 mM sodium acetate pH 3.0. […] Kinetic analysis is performed using double reference subtraction and model 1:1 (langmuir) binding analysis. Specificity was studied by injecting CD32aECDHis at a concentration of […] over immobilized HuMab and isotype control antibodies under the same conditions as for the CD32b measurements.

[16] = target: T4, full length CD32a on stably transfected IIA1.6 cells (human, UniProt P12318 34-317); assay: flow cytometry on IIA1.6-CD32a cells
T4 construct: whole, on cells; also called IIA1.6-CD32a; CD32a-expressing IIA1.6 cells
T4 sequence (looked up): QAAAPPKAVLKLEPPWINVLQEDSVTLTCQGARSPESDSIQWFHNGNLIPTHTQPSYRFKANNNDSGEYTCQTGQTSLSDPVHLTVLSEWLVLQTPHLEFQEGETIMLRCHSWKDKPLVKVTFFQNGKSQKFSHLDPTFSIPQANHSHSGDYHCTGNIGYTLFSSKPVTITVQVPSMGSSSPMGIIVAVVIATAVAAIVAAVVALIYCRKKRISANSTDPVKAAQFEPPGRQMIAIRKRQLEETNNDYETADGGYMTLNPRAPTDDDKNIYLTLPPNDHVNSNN
Experimental: as §3

Row | Binder | % residual binding (biotinylated CD32bECDHis [1]) | % residual binding (biotinylated CD32bECDHis [2]) | % residual binding (biotinylated CD32bECDHis [3]) | % residual binding (biotinylated CD32bECDHis [4]) | % residual binding (biotinylated CD32bECDHis [5]) | % residual binding (biotinylated CD32bECDHis [6]) | % residual binding (biotinylated CD32bECDHis [7]) | % residual binding (biotinylated CD32bECDHis [8]) | % residual binding (biotinylated CD32bECDHis [9]) | % residual binding (biotinylated CD32bECDHis [10]) | % residual binding (biotinylated CD32bECDHis [11]) | EC50 [12] | EC50 (CD32bECDHis [13]) | IC50 (CD32bECDHis [14]) | Kd (CD32bECDHis [15]) | koff (CD32bECDHis [15]) | kon (CD32bECDHis [15]) | EC50 [16] | % of maximal Fab-mediated inhibition (CD32bECDHis [14])
1 | Antibody 053 (antibody, human IgG1, V domains shown, Human antibody; also called HuMab 053) VH: QVQLVESGGGVVQPGRSLRLSCAVSGFTFRSYGMHWVRQAPGKGLEWVAVIWYDGSIKYYADSVKGRFTISRDNSKNTLYLQMNSLRAEDTAVYFCAREGGRDAFDIWGQGTMVTVSS VL: AVQLTQSPSSLSASVGDRVTITCRASQGISSALAWYQQKPGKAPKLLIYDASSLESGVPSRFSGSGSGTDFTLTISSLQPEDFATYCCQQFNSYPHTFGGGTKVEIKR | 26% | 195% | 6% | 43% | 4% | 168% | 40% | 19% | 98% | 8% | 13% | 1.06 nM | – | – | – | – | – | – | –
2 | Antibody 016 (antibody, human IgG1, V domains shown, Human antibody; also called HuMab 016) VH: QVQLVESGGGVVQPGRSLRLSCAASGFTFSSYGIHWVRQAPGKGLEWVAVIGYDGSDKNYADSVKGRFTIFRDNSKNTLYLQMNSLRAEDTAVYYCARDQLGDAFDIWGQGTMVTVSS VL: EIVLTQSPATLSLSPGERATLSCKASQSVSSSLAWYQQKPGQAPRLLIYDASNRATGIPARFSGSGSGTDFTLTISSLEPEDFAVYYCQQRSNWPPYTFGQGTKLEIKR | – | – | – | – | – | – | – | – | – | – | – | 0.11 nM | 0.28 nM | 0.24 nM | 1.1 nM | 0.0028 s⁻¹ | 2.66e+06 M⁻¹ s⁻¹ | 0.25 nM | –
3 | Antibody 063 (antibody, human IgG1, V domains shown, Human antibody; also called HuMab 063) VH: EVQLLESGGGLVQPGGSLRLSCAASGFTFSSYAMSWVRQAPGKGLEWVSAISDSGGSTYYADSVKGRFTISRDNSKNTLYLQMNSLRAEDTAAYYCAKEIAVALFDYWGQGTLVTVSS VL: EIVLTQSPATLSLSPGERATLSCRASQSVSSYLAWYQQKPGQAPRLLIYDASNRATGIPARFSGSGSGTDFTLTISSLEPEDFAVYYCQQRSSWPPYTFGQGTKLEIKR | 70% | 98% | 23% | 0% | 8% | 102% | 79% | 59% | 103% | 29% | 49% | – | – | – | – | – | – | – | ~70%
